The values below come from article PMC9234707, “Type II BMP and activin receptors BMPR2 and ACVR2A share a conserved mode of growth factor recognition” (The Journal of Biological Chemistry, 2022).

This data set concerns the molecule itself. Briefly: crystal structure; purified GF combined with 1.2 M excess of purified, deglycosylated receptor GBD; buffer exchanged to 10 mM Tris-HCl, 40 mM NaCl, pH 8.0; BMPR2-activin B crystals in 14% PEG 3K, 175 mM (NH4)2SO4, 100 mM BisTris pH 5.4; ACVR2A-activin A crystals in 17% PEG 3K, 100 NaCitrate pH 5.8.

B1: activin B (ligand, human (by the printed accession), UniProt P09529 293-407, looked up)
chain: GLECDGRTNLCCRQQFFIDFRLIGWNDWIIAPTGYYGNYCEGSCPAYLAGVPGSASSFHTAVVNQYRMRGLNPGTVNSCCIPTKLSTMSMLYFDDEYNIVKRDVPNMIVEECGCA
notes: activin B (inhibin beta B chain), full mature moiety, residues 293 to 407; disulfide linked dimer; also called ActB; INHBB
On to B1, for which the binding result is reported as “binds”.

B2: activin A (ligand, human (by the printed accession), UniProt P08476 311-426, looked up)
chain: GLECDGKVNICCKKQFFVSFKDIGWNDWIIAPSGYHANYCEGECPSHIAGTSGSSLSFHSTVINHYRMRGHSPFANLKSCCVPTKLRPMSMLYYDDGQNIIKKDIQNMIVEECGCS
notes: activin A (inhibin beta A chain), full mature moiety, residues 311 to 426; disulfide linked dimer; it was removed with the prodomain; also called ActA; INHBA
As to B2, the binding result was “binds”.
